Here are results for 5 molecules from patent publication US7022818 (Janssen / Centocor, dated 2006).

First the molecules themselves.
T1: human GFRα-2-IgGFc fusion protein (human, UniProt O00451 20-431)
T1 construct: range 20-431; not shown: 243 amino acid residue COOH-terminal human IgG1-Fc fusion domain from vector Signal pIg plus (R&D Systems); exact limits
T1 sequence (looked up): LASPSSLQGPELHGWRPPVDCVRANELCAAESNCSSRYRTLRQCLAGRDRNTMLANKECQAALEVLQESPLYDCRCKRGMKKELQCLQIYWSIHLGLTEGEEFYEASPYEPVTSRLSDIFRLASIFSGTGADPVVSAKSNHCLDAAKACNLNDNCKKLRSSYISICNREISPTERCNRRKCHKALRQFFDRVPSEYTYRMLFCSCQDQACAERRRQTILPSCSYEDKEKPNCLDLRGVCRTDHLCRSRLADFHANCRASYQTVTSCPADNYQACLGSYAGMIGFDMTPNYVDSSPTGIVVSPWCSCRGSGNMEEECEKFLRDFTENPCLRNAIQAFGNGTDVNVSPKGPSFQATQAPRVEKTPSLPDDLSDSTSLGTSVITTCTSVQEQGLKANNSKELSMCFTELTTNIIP

B1: rat GFRα-4 variant A-IgGFc fusion protein (Fc fusion)
chain: ASSTEGNRCVEAAEACTADEQCQQLRSEYVAQCLGRAGWRGPGSCVRSRCRRALRRFFARGPPALTHALLFCGCEGPACAERRRQTFAPACAFSGPQLAPPSCLKPLDRCERSRRCRPRLFAFQASCAPAPGSRDGCPEEGGPRCLRAYAGLVGTVVTPNYLDNVSARVAPWCGCEASGNRREECEAFRKLFTRNPCLDGAIQAFDSSQPSVLQDQWNPYQNAG
notes: also called rat GFRα-4-IgGFc; rat GFRα4-IgGFc; not shown: The 243-residue COOH-terminal human IgG1-Fc fusion domain from the vector Signal pIg plus (R&D Systems)
B2: NH2-terminally 6His-tagged recombinant human neurturin (ligand)
chain: HHHHHHARLGARPCGLRELEVRVSELGLGYASDETVLFRYCAGACEAAARVYDLGLRRLRQRRRLRRERVRAQPCCRPTAYEDEVSFLDAHSRYHTVHELSARECACV
notes: Immobilised on a CM5 chip by amine coupling; also called NTN
B3: NH2-terminally 6His-tagged recombinant rat persephin (ligand)
chain: HHHHHHALPGLCRLWSLTLPVAELGLGYASEEKIIFRYCAGSCPQEVRTQHSLVLARLRGQGRAHGRPCCQPTSYADVTFLDDHHHWQQLPQLSAAACGCGG
notes: Immobilised on a CM5 chip by amine coupling; Produced as described in Creedon et al., 1997; also called PSP; rat PSP
B4: recombinant human GDNF (ligand, UniProt P39905 78-211, looked up)
chain: SPDKQMAVLPRRERNRQAAAANPENSRGKGRRGQRGKNRGCVLTAIHLNVTDLGLGYETKEELIFRYCSGSCDAAETTYDKILKNLSRNRRLVSDKVGQACCRPIAFDDDLSFLDDNLVYHILRKHSAKRCGCI
notes: Immobilised on a CM5 chip by amine coupling; also called glial cell-line derived neurotrophic factor
B5: NH2-terminally 6His-tagged recombinant human enovin/artemin (ligand)
chain: HHHHHHAGGPGSRARAAGARGCRLRSQLVPVRALGLGHRSDELVRFRFCSGSCRRARSPHDLSLASLLGAGALRPPPGSRPVSQPCCRPTRYEAVSFMDVNSTWRTVDRLSATACGCLG
notes: Immobilised on a CM5 chip by amine coupling; also called EVN/ART; EVN/ARTN

The target in test [1] is B3. The test can be described thus: SPR (BIACORE 3000), persephin immobilised. On the procedure: Bound protein was eluted with 0.1 M Na-citrate, pH 3.0 and collected into 1 M Tris buffer, pH 8.4 (dilution ratio 1:6). Protein concentration was estimated by absorbance at 280 nm using an extinction coefficient of 1.5. Surface plasmon resonance (SPR) U.S. Ser. No. 10/019,337, filed Dec. 19, 2001 experiments were performed at 25° C. using a BIACORE 3000 instrument (Biacore AB, Uppsala, Sweden). Sensor chip CM5, the amine coupling kit and buffers used were also obtained from Biacore AB. Recombinant PSP, NTN, EVN/ART and GDNF were used as immobilised ligands. Recombinant human GDNF was obtained from R&D Systems Europe Ltd. (Abingdon, UK). NH2-terminally 6His-tagged (SEQ ID NO: 48) recombinant human NTN, rat PSP and human EVN/ART were produced in *E. coli* as described previously (Creedon et al., 1997). […] The association of the GFRα receptors to the immobilised ligands was monitored for 3 min and the dissociation for 1 min, followed by regeneration with 10 mM glycine buffer. […] Data were analyzed using a global analysis with the BIACORE evaluation software (version 3.0.1). Global analysis calculates the association rate (k_a) and dissociation rate (k_d) simultaneously and the apparent equilibrium dissociation constant (K_D) is then calculated as k_d/k_a. […] Specific binding to PSP could be detected with both rat and chicken GFRα-4-IgGFc fusion proteins.

Test [2] has as its target T1, human GFRα-2-IgGFc fusion protein. Put plainly: SPR (BIACORE 3000), NTN immobilised. On the procedure: GFRα-IgGFc fusion proteins were purified from the medium of permanently or transiently transfected CHO cells by protein A chromatography. Bound protein was eluted with 0.1 M Na-citrate, pH 3.0 and collected into 1 M Tris buffer, pH 8.4 (dilution ratio 1:6). Protein concentration was estimated by absorbance at 280 nm using an extinction coefficient of 1.5. Surface plasmon resonance (SPR) U.S. Ser. No. 10/019,337, filed Dec. 19, 2001 experiments were performed at 25° C. using a BIACORE 3000 instrument (Biacore AB, Uppsala, Sweden). Sensor chip CM5, the amine coupling kit and buffers used were also obtained from Biacore AB. Recombinant PSP, NTN, EVN/ART and GDNF were used as immobilised ligands. Recombinant human GDNF was obtained from R&D Systems Europe Ltd. (Abingdon, UK). NH2-terminally 6His-tagged (SEQ ID NO: 48) recombinant human NTN, rat PSP and human EVN/ART were produced in *E. coli* as described previously (Creedon et al., 1997). […] The association of the GFRα receptors to the immobilised ligands was monitored for 3 min and the dissociation for 1 min, followed by regeneration with 10 mM glycine buffer. […] Data were analyzed using a global analysis with the BIACORE evaluation software (version 3.0.1). Global analysis calculates the association rate (k_a) and dissociation rate (k_d) simultaneously and the apparent equilibrium dissociation constant (K_D) is then calculated as k_d/k_a. […]

The target of test [3] is B1. Put plainly: SPR (BIACORE 3000), ligand immobilised, GFRα-IgGFc in solution. The procedure:
(§1) Bound protein was eluted with 0.1 M Na-citrate, pH 3.0 and collected into 1 M Tris buffer, pH 8.4 (dilution ratio 1:6). Protein concentration was estimated by absorbance at 280 nm using an extinction coefficient of 1.5. Surface plasmon resonance (SPR) U.S. Ser. No. 10/019,337, filed Dec. 19, 2001 experiments were performed at 25° C. using a BIACORE 3000 instrument (Biacore AB, Uppsala, Sweden). Sensor chip CM5, the amine coupling kit and buffers used were also obtained from Biacore AB. Recombinant PSP, NTN, EVN/ART and GDNF were used as immobilised ligands. Recombinant human GDNF was obtained from R&D Systems Europe Ltd. (Abingdon, UK). NH2-terminally 6His-tagged (SEQ ID NO: 48) recombinant human NTN, rat PSP and human EVN/ART were produced in *E. coli* as described previously (Creedon et al., 1997). The carboxylated matrix of a CM5 sensor chip was first activated with a 1:1 mixture of 400 mM N-ethyl-N'-(3-dimethylaminopropyl)-carbodiimide and 100 mM N-hydroxy-succinimide for 10 min. Recombinant neurotrophic factors were applied onto the activated surface in 10 mM sodium acetate buffer, pH 4.5 at a flow rate of 5 μl/min. Unreacted carboxyl groups were blocked with 1 M ethanolamine-HCl. For binding experiments, soluble GFRα-IgGFc fusion proteins were superfused using the kinject program at 30 μl/min. Concentrations of GFRα-IgGFc used in kinetic experiments were between 1 and 100 nM in Hepes buffered saline (150 mM NaCl, 3.5 mM EDTA sodium salt, 0.005% polysorbate 20, 10 mM Hepes, pH 7.4). The association of the GFRα receptors to the immobilised ligands was monitored for 3 min and the dissociation for 1 min, followed by regeneration with 10 mM glycine buffer. Dissociation was initiated by superfusion with Hepes buffered saline. To improve the quality of sensor data, double referencing was used (Myszka, 1999). Data were analyzed using a global analysis with the BIACORE evaluation software (version 3.0.1). Global analysis calculates the association rate (k_a) and dissociation rate (k_d) simultaneously and the apparent equilibrium dissociation constant (K_D) is then calculated as k_d/k_a. A simple 1:1 Langmuir model was used to fit the data. Specific binding to PSP could be detected with both rat and chicken GFRα-4-IgGFc fusion proteins.
(In general: In SPR one partner is held on a chip, and binding of the other changes the refractive index at the surface.)

The target in test [4] is T2, chicken GFRα-4-IgGFc fusion protein (chicken; human, UniProt P01857-1 99-330 = IgG part, limits assumed).
T2 construct: domain: human IgG1-Fc fusion domain; also called chicken GFR-4-IgGFc
T2 sequence (P01857 other isoform, or with tags, fused parts or gaps limits assumed): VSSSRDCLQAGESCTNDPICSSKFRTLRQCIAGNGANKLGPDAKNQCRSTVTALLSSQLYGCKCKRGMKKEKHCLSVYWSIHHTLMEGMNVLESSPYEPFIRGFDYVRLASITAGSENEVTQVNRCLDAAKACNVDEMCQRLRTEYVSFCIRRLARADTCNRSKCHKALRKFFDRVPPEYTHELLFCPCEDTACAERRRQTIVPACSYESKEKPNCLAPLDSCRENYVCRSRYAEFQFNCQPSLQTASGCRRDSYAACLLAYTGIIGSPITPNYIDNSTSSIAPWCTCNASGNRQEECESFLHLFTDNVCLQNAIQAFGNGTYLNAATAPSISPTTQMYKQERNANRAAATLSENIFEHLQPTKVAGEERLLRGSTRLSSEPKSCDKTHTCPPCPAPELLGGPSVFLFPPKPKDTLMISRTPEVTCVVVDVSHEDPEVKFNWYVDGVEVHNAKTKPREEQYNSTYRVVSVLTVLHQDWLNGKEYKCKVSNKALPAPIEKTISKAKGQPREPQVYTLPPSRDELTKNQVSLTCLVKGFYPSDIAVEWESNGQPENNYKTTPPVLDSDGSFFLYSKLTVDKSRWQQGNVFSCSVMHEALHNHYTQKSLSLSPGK
The description is as above. The procedure: as §1

Test [5] concerns the target B1. Put plainly: SPR (BIACORE 3000), persephin immobilised, GFRα-4-IgGFc in solution, 1:1 Langmuir global fit, n=3. On the procedure:
as §1

Test [6] addresses T2, chicken GFRα-4-IgGFc fusion protein. Described as above. The procedure: as §1

As to B1, the “fold lower binding level than chicken GFRα-4-IgGFc” value in test [1] is about 20 fold.
Turning to B2, the binding result was “binds” in test [2], “no binding” in test [3] and “no binding” in test [4].
A word on the Kd: it is the equilibrium constant for the complex coming apart. Low readings indicate higher affinity, high ones lower affinity. For orientation: koff means a measure of how fast the partners let go of each other. Lower therefore signals a long-lived complex. A word on the kon: it is the rate constant with which the complex forms. Low readings indicate slower complex formation, high ones faster complex formation. Consider B3, for which, in test [5], the Kd turned out to be 5.9 nM, the koff was determined as 0.0012 s⁻¹ and the kon is about 270000 M⁻¹ s⁻¹. In test [6], this molecule had a Kd of 5.4 nM, a koff of 0.00088 s⁻¹ and a kon of about 230000 M⁻¹ s⁻¹.
Regarding B4, the binding result in test [3] and in test [4] was “no binding” each time.
B5: the binding result in test [3] and in test [4] was “no binding” each time.
